Non-standard residues stand in square brackets, D forms with d. *: point of attachment. pNA = O=[N+]([O-])c1ccc(N*)cc1; HHT = not defined here
Biological target: T1, activated protease T-HA6×HIS (Homo sapiens, UniProt Q9BQR3, D40A/M35I/Q39Y/Q42E/T41L)
T1 construct: made in house; host or cells: Sf9 insect cells (baculovirus)
Assay: Amidolytic activity of activated protease T on chromogenic pNA substrates
Format: biochemical
Settings: substrate at 500 uM; 10 mM Tris-HCl pH 7.8, 25 mM NaCl, 25 mM imidazole; pNA release over 120 minutes at 37° C., 405 nm; N.A. = No Activity
Description: The conditioned medium from infected Sf9 cells was used to purify secreted recombinant PFEK-protease T-HA6×HIS zymogen. The medium was concentrated 5 to 10 fold using a Centriprep concentrator (Amicon Inc., Beverly, Mass.). 150 μl of a 50% Ni-NTA slurry (Qiagen, Valencia, Calif.) was added to 5 to 10 ml of the concentrated medium and mixed by shaking at 4° C. for 60 minutes. The zymogen-bound resin was washed 3 times with 1.5 ml of wash buffer (10 mM Tris-HCl (pH 8.0), 300 mM NaCl, and 15 mM imidazole), followed by with a 1.5 ml wash with ds H2O. Enterokinase cleavage was carried out by adding enterokinase (Novagen, Inc., Madison Wis.; or Sigma, St. Louis, Mo.) to the zymogen-bound Ni-NTA beads in a 150 ul volume at room temperature overnight with gentle shaking in a buffer containing 20 mM Tris-HCl (pH 7.4), 50 mM NaCl, and 2.0 mM CaCl2. The resin was then washed twice with 1.5 ml wash buffer. The activated protease T-HA6×HIS was eluted with elution buffer (20 mM Tris-HCl (pH 7.8), 250 mM NaCl, and 250 mM imidazole). Eluted protein concentration was determined by a Micro BCA Kit (Pierce, Rockford, Ill.) using bovine serum albumin as a standard. Amidolytic activities of the activated protease T-HA6×HIS was monitored by release of para-nitroaniline (pNA) from the synthetic substrates indicated in Table 1 and FIG. 6. […] Release of pNA was measured over 120 minutes at 37° C. on a micro-plate reader (Molecular Devices, Menlo Park, Calif.) with a 405 nm absorbance filter. The initial reaction rates (Vmax, mOD/min) were determined from plots of absorbance versus time using Softmax (Molecular Devices, Menlo Park, Calif.). […]
Amidolytic activities of the activated serine proteases are monitored by release of para-nitroaniline (pNA) from synthetic substrates that are commercially available (Bachem California Inc., Torrance, […].; American Diagnostica Inc., Greenwich, Conn.; Kabi Pharmacia Hepar Inc., Franklin, Ohio). […] Release of pNA is measured over 120 min at 37° C. on a micro-plate reader (Molecular Devices, Menlo Park, Calif.) with a 405 nm absorbance filter. […]

T1 sequence (Q9BQR3 35-290 M35I/Q39Y/D40A/T41L/Q42E limits assumed): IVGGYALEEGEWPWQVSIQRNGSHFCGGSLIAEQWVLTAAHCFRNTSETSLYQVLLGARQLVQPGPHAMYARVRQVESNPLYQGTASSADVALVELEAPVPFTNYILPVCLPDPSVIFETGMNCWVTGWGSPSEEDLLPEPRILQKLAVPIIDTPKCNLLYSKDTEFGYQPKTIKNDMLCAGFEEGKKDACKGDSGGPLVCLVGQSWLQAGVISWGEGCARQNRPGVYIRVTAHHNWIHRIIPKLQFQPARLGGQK

Substance	Specific Activity
H-D-Pro-HHT-Arg-pNA (H-[dP]-[HHT]-Arg-pNA; reading uncertain; also: printed as H-D-Pro-HHT-Arg-pNA) [commercially available chromogenic substrate]	0.010 ± 0.000 nmole pNA produced/min/μg protein
H-DL-Val-Leu-Arg-pNA (H-Val-Leu-Arg-pNA; also: DL-Val (racemic) at 1) [commercially available chromogenic substrate]	0.016 ± 0.003 nmole pNA produced/min/μg protein
H-D-Lys(CBO)-Pro-Arg-pNA (H-[dK](CBO)-Pro-Arg-pNA) [commercially available chromogenic substrate]	0.057 ± 0.022 nmole pNA produced/min/μg protein
